{"source": "the nanobody polyreactivity screen of Harvey et al. (2022)", "data": [{"assay": "yeast display, Sf9 membrane polyspecificity reagent, FACS + sequencing; frameworks hold sequencing errors", "in_short": "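Nanobodies from a synthetic yeast display library (Saccharomyces cerevisiae BJ5465), induced 36–48 hours with galactose, were stained 1 hour at 4 °C with 10% biotinylated, detergent-solubilized Sf9 membrane reagent, enriched on streptavidin microbeads, then FACS-sorted. Anti-HA (expression) and streptavidin (reagent binding) fluorescence set low and high (top ~1%) gates. Polyreactivity labels come from the gate of origin. Genes were colony-PCR amplified, MiSeq 2 × 250 sequenced and filtered by CDR length.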", "values": [{"sequence": "QVQIVESGGGLLQAGGSLRLSCAASGLTFGSYAMGWYRQAPGKERELVAAISRSGGSTYYADSVKGRFTISRDNAKNTVYLQMNSLKPEDTAVYYCNAVNPYYAPTERRVGFDYWGQGTQVTVSS", "polyreactivity (PSR sort gate)": "high polyreactivity"}, {"sequence": "QVQIVESGGGLVQAAVSLPISCPASGSIFGSYAMGWYRQAPGKERELVAAISKSGGSTYYADSVKGRFTISRDYAKNTVNLQMNSLKPEDTEVYYCAARAFLYAYRAYDYWGQGTQVNVSS", "polyreactivity (PSR sort gate)": "high polyreactivity"}, {"sequence": "QVQIVESGGGLVQAGCSLRLSCAASGFIFRRNAMGWYRQAPGKERELVATIRASGGRTYYADSEKGRFTISRDNAKNTVYLQMNSMKPEDTAVYYCAADTYRDVRDPYYYWGQGTQVTVSS", "polyreactivity (PSR sort gate)": "high polyreactivity"}, {"sequence": "QVQIVESGGGLVQAGGSHRLSCAASGSTFASNTKGWYTQAPGKERELVATITQSGGTRYYADSVKGRFTISRDNAKYTVYFQMNSLKPEDTAVYDCATDVGYFYTVVGGYDYWGQGTQVTVSA", "polyreactivity (PSR sort gate)": "low polyreactivity"}, {"sequence": "QVQIVESGGGLVQAGGSIRLSCAASGYTFVIYAMGSYRPAPGKERELVAAITTIGGRTYYADSVKGRFTISRDNAKNTVYLQMNSLKPEDTAVYYCAADIRSNRLYDGGYWGQGTQVTVSS", "polyreactivity (PSR sort gate)": "low polyreactivity"}, {"sequence": "QVQIVESGGGLVQAGGSLPLSCAASGSIFDYYVMGWYRQAPGKERELVAAINWSGDGTNYADSVKGRFTISRDNAKNTVYLQMNSLKPEDTAVYYCNADWTSDGFGTRLDYWGQGTQVTVSS", "polyreactivity (PSR sort gate)": "low polyreactivity"}, {"sequence": "QVQIVESGGGLVQAGGSLRFSCAASGRIFIYNAMGWYRQAPGKERELVAAISRTGGRTYYADSVKGRFTISRDISKNTVYLQMNSLKPEDTAVYYCAARNRGQYYSWGQGTQLTVSS", "polyreactivity (PSR sort gate)": "high polyreactivity"}, {"sequence": "QVQIVESGGGLVQAGGSLRISCAASGFIFAYNSMGWNRQAPGKERELVAAISRSGGSTRYADSVKGRFPISRDNAKNTVFLQMNSLKPEDTAVYYCAAEYLGSYGYYEYDFWGQGTQVTVSS", "polyreactivity (PSR sort gate)": "high polyreactivity"}, {"sequence": "QVQIVESGGGLVQAGGSLRISCAASGIIFYAYAMGWSRQAPGKEREFVAAINNSGGRTYYADSVKGRFTISRDNAKNTVYLQMNSLKPEDTAVYYCAVYSYYRRTYRREMDYWGQGTQVTVSS", "polyreactivity (PSR sort gate)": "high polyreactivity"}, {"sequence": "QVQIVESGGGLVQAGGSLRLICAASGFTFTYNAMGWYRQAPWKERELVADIDSDGSTTYADSVKGRFTISRDNAKNTVYLQMNSLKPEDTAVYYCAADYWDYSVWRWYEYWGQGTQVTVSS", "polyreactivity (PSR sort gate)": "high polyreactivity"}, {"sequence": "QVQIVESGGGLVQAGGSLRLICAASGRIFRYYVMGWYRQAPGKERELVATITSGGSTNYADSVKGRFTISRDNAKNTVYLQMNSLKPEDTAVYYCNRDRYPYYYAYNFWGQGTQVTVSS", "polyreactivity (PSR sort gate)": "low polyreactivity"}, {"sequence": "QVQIVESGGGLVQAGGSLRLSCAACGRIFTWNVMGWYRQAPGKEREFVAAITYSGGRTRYADSVKGRFTISRDIAKNTVYLQMNSLKPEDTAFYYCAATSRGTDYWGQGTQVTVSS", "polyreactivity (PSR sort gate)": "high polyreactivity"}, {"sequence": "QVQIVESGGGLVQAGGSLRLSCAASGFIFRYNVMGWYRQAPAKERELVAANSSSGSRTYYADSVKGRFTISRDNAKNTVYLQMNSLKPEDTAVYYCATQSWVRYGQPEFDYWGHGTQVTVSS", "polyreactivity (PSR sort gate)": "high polyreactivity"}, {"sequence": "QVQIVESGGGLVQAGGSLRLSCAASGFIFTAYAMGWYRPGPGKERELDAAISSSGTRTYYADSVKGRFTISRDYAKNTVYLQMNCLKPEDTAVYYCNKLYLVWNFYSGYDYSGQGTQVTVSS", "polyreactivity (PSR sort gate)": "high polyreactivity"}, {"sequence": "QVQIVESGGGLVQAGGSLRLSCAASGFTFRYYAMGWYRQAPGQERELVAAISKSGGSTYYADSVKGRFTISRDNAKNTVDLQMNSLKPEDTAVYYCAADYAHIGYDYDYWGQGTQVTVSS", "polyreactivity (PSR sort gate)": "high polyreactivity"}, {"sequence": "QVQIVESGGGLVQAGGSLRLSCAASGFTFWRNAMVWYRQAPGKERELVAAINWSGGSTYYADSVKGRFTISRDNAKNTVYLQMNSLKPEDTAVYYCAADLSSRGISQDDYWGQGTQVTVSS", "polyreactivity (PSR sort gate)": "high polyreactivity"}, {"sequence": "QVQIVESGGGLVQAGGSLRLSCAASGITFRFYALGWYRQATGKERELVAAISWSGGSTNYADSVKGRFTISRDNAKNTVYLQMNSLKPEDTAVYYCNVVGKYYSGGTYEYWGQGTQVTVSS", "polyreactivity (PSR sort gate)": "high polyreactivity"}, {"sequence": "QVQIVESGGGLVQAGGSLRLSCAASGLIFKYYAMGWYRQAPGKERELVATITRGGGSTYYADSVKGRFTISRDNAKNTVYLQMNSLKPEDTAVYYCAADYWYVYPRYNPGDYWGQGTQVTVSS", "polyreactivity (PSR sort gate)": "high polyreactivity"}, {"sequence": "QVQIVESGGGLVQAGGSLRLSCAASGLTFEWYTMGWYRQAPGKERELVAVITVSGSSTYYADSVKGRFTISRDNAKNTVYLQMNSLKPEDTAVYYCNADWSFYSYTLYDYWGQGTQVTVSS", "polyreactivity (PSR sort gate)": "low polyreactivity"}, {"sequence": "QVQIVESGGGLVQAGGSLRLSCAASGNTFYVNVMGWYRQAPGKEREFVAAISTRGVSTSYADSVKGRFTISRDNAKNTVYLQMNSLKPEDTAVYYCAASFRRPQPKGTTYGYWGQGTQVTVSS", "polyreactivity (PSR sort gate)": "high polyreactivity"}, {"sequence": "QVQIVESGGGLVQAGGSLRLSCAASGRIFDYYAMGWYRQAPGKERELVADITSGGSTYYADSVKGRFTISRDNAKNTVYLQMNSLKPEDTAVYYCNADGPGSYIWYYFVYTTPEYDYWGQGTQVTVSS", "polyreactivity (PSR sort gate)": "low polyreactivity"}, {"sequence": "QVQIVESGGGLVQAGGSLRLSCAASGRIFYRYDMGWYRQAPGKERELVAVISGGGTYYADSVKGRFTISRDNAKNTVYLQMNSLKPEDTAVYYCAADDGVSLVSPYYGGYDYWGQGTQVTVSS", "polyreactivity (PSR sort gate)": "low polyreactivity"}, {"sequence": "QVQIVESGGGLVQAGGSLRLSCAASGRIIRINAMGWSRQAPGKERELVAAITRGGTTYADSVKGRFTISRDNAKNTVYLQMNSLKPEDTAVYYCNARTGRSPTGFRYWGQGTQVTVSS", "polyreactivity (PSR sort gate)": "high polyreactivity"}, {"sequence": "QVQIVESGGGLVQAGGSLRLSCAASGRTFAYYAMGWYRQAPGKERELVATISGSGGTTRYADSVKGRFTISRDNAKNTVYLQMNSLKPEDTAVYYCAARYASGRRGEYWGQGTQVTVSS", "polyreactivity (PSR sort gate)": "high polyreactivity"}, {"sequence": "QVQIVESGGGLVQAGGSLRLSCAASGRTFAYYSMGWYRPAPGKEREFVAAISRSGGSTYYADSVKGRFTISRDNAKNTVYLQMNSLKPEDTAVYYCNARYIWKQYRYDYWGQGTQVTVSS", "polyreactivity (PSR sort gate)": "high polyreactivity"}, {"sequence": "QVQIVESGGGLVQAGGSLRLSCAASGRTFNRNAMGWYRQAPGKERELVAAISRGGGGTFYADSVKGRFTISRDNAKNTVYLQMNSLKPEDTAVYYCAKTLRGWHTIITDYDYWGQGTQVTVSS", "polyreactivity (PSR sort gate)": "low polyreactivity"}, {"sequence": "QVQIVESGGGLVQAGGSLRLSCAASGRTFYSYAMGWYRQAPGKERELVAAIRWTGVRTYYADSVKGRFTISRDNAKNTVYLEINSLKPEDTAVYYCAVFRSSGKGYRGPRDYWGQGTQVTVSS", "polyreactivity (PSR sort gate)": "high polyreactivity"}, {"sequence": "QVQIVESGGGLVQAGGSLRLSCAASGRTLDSNAIGWYRKATRKERVLVAAISSAGSTNYADSVKGRFTISRDNAKNTVYLQMNSLKPEDTAVYYCAADLIGSHDYSGQGTQVTVSS", "polyreactivity (PSR sort gate)": "low polyreactivity"}, {"sequence": "QVQIVESGGGLVQAGGSLRLSCAASGRTTSTNAMGWYRQAPGKERELVASISWRGGSTYYADSVKGRFTISRDNAKNTVYLEMNCLKPEDTAVYYCAASWPRWWRFGYWGQGTQVTVSS", "polyreactivity (PSR sort gate)": "low polyreactivity"}, {"sequence": "QVQIVESGGGLVQAGGSLRLSCAASGSIFDSNAMGWYRQAPGKERELVASITSDGDTYYADSVKGRFTISRDNAKNTVYLQMNSVKPEDTAVYYGAAYVPYSGLDYWGQGTQVTVSS", "polyreactivity (PSR sort gate)": "low polyreactivity"}, {"sequence": "QVQIVESGGGLVQAGGSLRLSCAASGSIFGTNTMGWYRPAPGKEWEFVAAIRLSDSSTYYADSVKWRFTISRDNAKNTVYLQMNSLKPEDTEVYYCAVDYRAYHYYLYDYWGQGTQVTVSS", "polyreactivity (PSR sort gate)": "low polyreactivity"}]}]}
